The text below walks through data of US20250051474A1, “ANTI-CD97 ANTIBODIES AND ANTIBODY-DRUG CONJUGATES” (New York University, priority 2023, published 2025).

In data set [1] the target is T1, CD97 (ADGRE5) isoform 1 ectodomain, purified and biotinylated (human, UniProt P48960 21-552, limits assumed, biotinylated in vitro using the BirA enzyme).
T1 construct: the whole entry for isoform 1 is named here; also called CD97 isoform 1; Biotinylated CD97 isoform 1
T1 sequence: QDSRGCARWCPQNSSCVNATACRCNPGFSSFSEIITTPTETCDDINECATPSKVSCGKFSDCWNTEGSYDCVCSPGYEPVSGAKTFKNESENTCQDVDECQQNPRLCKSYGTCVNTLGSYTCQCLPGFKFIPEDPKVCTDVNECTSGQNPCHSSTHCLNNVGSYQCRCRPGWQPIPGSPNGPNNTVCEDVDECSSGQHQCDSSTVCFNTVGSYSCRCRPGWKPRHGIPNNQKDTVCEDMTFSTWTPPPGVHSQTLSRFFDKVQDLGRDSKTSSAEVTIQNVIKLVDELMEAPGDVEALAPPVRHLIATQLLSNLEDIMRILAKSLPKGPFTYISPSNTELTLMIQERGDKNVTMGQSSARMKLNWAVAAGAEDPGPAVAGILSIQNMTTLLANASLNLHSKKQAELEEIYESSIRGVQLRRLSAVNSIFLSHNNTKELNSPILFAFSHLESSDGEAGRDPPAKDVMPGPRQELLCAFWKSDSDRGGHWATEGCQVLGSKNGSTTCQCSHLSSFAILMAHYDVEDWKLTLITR
In words: bead-based binding assay: biotinylated CD97 isoform 1 on streptavidin beads, Fab titrated, flow cytometry MFI, 1:1 fit; EXPERIMENT 1. Background: In flow cytometry, cells or beads pass a laser one at a time.

Data set [2] deals with T1, CD97 (ADGRE5) isoform 1 ectodomain, …. In words: bead-based binding assay: biotinylated CD97 isoform 1 on streptavidin beads, Fab titrated, flow cytometry MFI, 1:1 fit; EXPERIMENT 2.
Data set [3] concerns OCI-AML3 cells. In words: Cell-killing assay (Annexin V staining, Incucyte). The data set is classed as cell-based, human. The method, then: (§1) For the cell viability assay, the cells were mixed with ADC (20,000 cells/well), and incubated at 37° C. with 5% CO2 for 3 days. After incubation, cell viability was assessed by PrestoBlue assay (Thermo Fisher), following the manufacturer's protocol. The fluorescence was measured using a FlexStation 3 multi-mode microplate reader (Molecular Devices). Dose-response curves and respective ECso were generated using Prism software (GraphPad). For the cell-killing assay, a 96-well plate was coated with 0.1% poly-D-lysine. The cells were mixed with a diluted Incucyte® Annexin V Green Dye (Sartorius) and ADC (13,500 cells/well), and incubated in an Incucyte live-cell analysis system (Sartorius) at 37° C. with 5% CO2 for 4 days. The percentage of dead cells was analyzed using Incucyte Software (Sartorious).

For data set [4], the system named is human peripheral blood mononuclear cells (PBMCs). The data set is described as follows: Cell-killing assay (Annexin V staining, Incucyte). It is filed as cell-based. The conditions noted are these: 4 days incubation. The method, then: as §1
Data set [5] relates to AML cells. The data set is described as follows: Cell viability assay (PrestoBlue), cell killing specificity. Conditions: cells with different CD97 levels. The data set is classed as cell-based, human. On the procedure:
as §1

For data set [6], the system named is OCI-AML3 cells. In words: Cell viability assay (PrestoBlue) of ADC. Conditions: 3 days incubation. The data set is classed as cell-based, human. On the procedure: as §1
Data set [7] has as its target T1, CD97 (ADGRE5) isoform 1 ectodomain, …. In words: bead-based binding assay: biotinylated CD97 isoform 1 on streptavidin beads, Fab titrated, flow cytometry MFI; EXPERIMENT 1 and EXPERIMENT 2.
For data set [8] the target is unchanged. In words: bead-based binding titration (biotinylated antigen on streptavidin beads, flow cytometry), 1:1 fit.
For data set [9], the target named is T2, CD97 (ADGRE5) isoform 2 ectodomain, purified and biotinylated (human, UniProt P48960 21-552, biotinylated in vitro using the BirA enzyme).
T2 construct: the whole entry for isoform 2 is named here; also called CD97 isoform 2
T2 sequence: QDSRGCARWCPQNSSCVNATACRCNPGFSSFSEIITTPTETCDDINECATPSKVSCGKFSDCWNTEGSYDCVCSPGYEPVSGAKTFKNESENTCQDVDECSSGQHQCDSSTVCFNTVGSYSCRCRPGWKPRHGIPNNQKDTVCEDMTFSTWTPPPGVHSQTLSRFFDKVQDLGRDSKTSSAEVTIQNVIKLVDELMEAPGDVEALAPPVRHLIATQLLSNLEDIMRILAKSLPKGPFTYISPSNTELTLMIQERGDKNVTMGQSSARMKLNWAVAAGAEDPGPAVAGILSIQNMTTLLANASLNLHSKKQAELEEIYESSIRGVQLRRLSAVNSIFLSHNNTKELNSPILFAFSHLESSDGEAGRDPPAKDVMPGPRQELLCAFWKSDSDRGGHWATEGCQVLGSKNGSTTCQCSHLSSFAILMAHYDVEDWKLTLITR
The data set is described as above.

Data set [10] deals with T3, EMR2 (EGF-like module-containing mucin-like hormone receptor-like 2) isoform 4 ectodomain, purified and … (UniProt Q9UHX3-4 24-447, limits assumed, biotinylated in vitro using the BirA enzyme).
T3 construct: extracellular domain; Close homolog of CD97 used as specificity control
T3 sequence (looked up): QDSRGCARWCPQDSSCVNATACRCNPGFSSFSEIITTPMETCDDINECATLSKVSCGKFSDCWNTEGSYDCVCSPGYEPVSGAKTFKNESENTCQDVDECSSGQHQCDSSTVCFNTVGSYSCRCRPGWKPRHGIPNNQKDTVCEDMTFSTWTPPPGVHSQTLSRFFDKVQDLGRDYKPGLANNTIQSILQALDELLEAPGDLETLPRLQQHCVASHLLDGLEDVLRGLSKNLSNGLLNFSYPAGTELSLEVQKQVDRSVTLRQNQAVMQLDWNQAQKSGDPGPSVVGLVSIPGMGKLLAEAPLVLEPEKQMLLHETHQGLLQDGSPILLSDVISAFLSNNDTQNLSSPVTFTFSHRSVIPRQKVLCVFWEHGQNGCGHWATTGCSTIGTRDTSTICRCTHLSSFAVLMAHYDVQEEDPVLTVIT
The data set is described as above.

The target of data set [11] is EMR2 (EGF-like module-containing mucin-like hormone receptor-like 2) isoform 1 ectodomain, purified and biotinylated (UniProt Q9UHX3). The description is as above.
Data set [12] deals with T1, CD97 (ADGRE5) isoform 1 ectodomain, …. In words: bead-based binding titration (biotinylated antigen on streptavidin beads, flow cytometry), 1:1 fit [Continued].
For data set [13], the target named is T2, CD97 (ADGRE5) isoform 2 ectodomain, …. In words: bead-based binding titration (biotinylated antigen on streptavidin beads, flow cytometry) [Continued].
Data set [14] deals with T3, EMR2 (EGF-like module-containing …). Described as above.

Changes are numbered by the printed parent chain. “Also recorded” adds a separate entry of the source.

B1: N100bHE (Fab, V domains shown)
VH: EVQLVESGGGLVQPGGSLRLSCAASGFTISSYSIHWVRQAPGKGLEWVASISPYYGSTSYADSVKGRFTISADTSKNTAYLQMNSLRAEDTAVYYCARSWYYYEQEPYWYQKEEQALDYWGQGTLVTVSS
VL: DIQMTQSPSSLSASVGDRVTITCRASQSVSSAVAWYQQKPGKAPKLLIYSASSLYSGVPSRFSGSRSGTDFTLTISSLQPEDFATYYCQQSVYSPVTFGQGTKVEIK
notes: also called A8 N100bHE; Antibody Clone A8 N100bHE; copies: 1 + 1
In the case of B1, the equilibrium dissociation constant (Kd) (usually the constant that tells how readily two partners part at equilibrium) was found to be 160 nM in data set [1] and 150 nM in [2].

B2: A8S293C-PBD (conjugate)
VH: B1 VH with E106N
VL: DIQMTQSPSSLSASVGDRVTITCRASQSVSSAVAWYQQKPGKAPKLLIYSASSLYSGVPSRFSGSRSGTDFTLTISSLQPEDFATYYCQQSVYSPVTFGQGTKVEIKRTV
B2: in data set [3] (4 days incubation), the “cell-killing effect (cell death, Annexin V)” value is “potent cell-killing effect”. Besides, the “specificity of cell killing” value in [3] (OCI-AML3 (hCD97 high) versus ExpiCHO (hCD97-null), 4 days) is reported as “specifically killed cells expressing high levels of CD97”. For the same molecule, the “killing of PBMC cells” value in [4] is on record as “did not kill PBMC cells”.

B3: A8-MMAF (conjugate)
VH: B1 VH with E106N
VL: B2 VL
modifications: non-natural residues
B3: in [5], the “cell killing specificity versus cell-surface CD97 level” value is “correlated with the cell-surface CD97 level; also recorded: inhibited cell growth only for the cells expressing a high level of CD97”. The “cell killing (cell viability)” value in [6] is on record as “potently killed OCI-AML3 cells in a dose-dependent manner; also recorded: potent cell-killing effect on OCI-AML3 cells”.

B4: W100eHA (Fab, V domains shown)
VH: B1 VH with E106N, W109A
VL: B1 VL
notes: also called A8 W100eHA; Antibody Clone A8 W100eHA; copies: 1 + 1
Regarding B4, the binding result in data set [7] is “no binding”.

B5: Fab 2V10 (Fab, V domains shown)
VH: EVQLVESGGGLVQPGGSLRLSCAASGFTISSSSIHWVRQAPGKGLEWVAYIYPSSGSTSYADSVKGRFTISADTSKNTAYLQMNSLRAEDTAVYYCARPWYYSTFNKKWWDYQGLDYWGQGTLVTVSS
VL: DIQMTQSPSSLSASVGDRVTITCRASQSVSSAVAWYQQKPGKAPKLLIYSASSLYSGVPSRFSGSRSGTDFTLTISSLQPEDFATYYCQQSWWDPITFGQGTKVEIKR
notes: second discovery campaign; biotinylated Fab in the bead assay; same clone as m10 in Fab format; also called Antibody Clone 2V10
With B5, the Kd in data set [8] was determined as 2.7 nM; in [9] it was 3 nM; in data set [10], 1.5 nM; in data set [11], 1.6 nM.

B6: Fab 2W1 (Fab, V domains shown)
VH: EVQLVESGGGLVQPGGSLRLSCAASGFTVSSSSIHWVRQAPGKGLEWVAYISSSSGSTYYADSVKGRFTISADTSKNTAYLQMNSLRAEDTAVYYCARDFYFGSYYSFGWGLDYWGQGTLVTVSS
VL: B5 VL with S91D, W92S, W93S, D94Y
notes: second discovery campaign; biotinylated Fab in the bead assay; also called Antibody Clone 2W1
As for B6, the Kd in data set [8] came out at 18 nM; in [9], 18 nM; in data set [10] it was 52 nM; in data set [11], 47 nM.

B7: Antibody clone C27, Fab format (Fab, V domains shown)
VH: EVQLVESGGGLVQPGGSLRLSCAASGFTLSSSSIHWVRQAPGKGLEWVASIYSYYGSTYYADSVKGRFTISADTSKNTAYLQMNSLRAEDTAVYYCARYRGNMYYWESWYGSYWALDYWGQGTLVTVSS
VL: B5 VL with W92S, W93S, D94S, P95L
B7 returned an equilibrium dissociation constant (Kd) in [12] of 16 nM. The binding result in data set [13] and in data set [14] was “no binding (tested: 50 nM)” each time.
